This is an account of results in patent US20240158537A1.

For the experiment, the target named is IL-7 receptor (IL-7R), heterodimer of IL-7R alpha (CD127) and common gamma chain (CD132), on primary human T cells (human) (UniProt P16871). Briefly: cell-based or functional assay.
Sequence of IL-7 receptor (IL-7R), heterodimer of IL-7R alpha (CD127) and common gamma chain (CD132), on primary human T cells (human) (P16871 21-459, chain 1 of 2): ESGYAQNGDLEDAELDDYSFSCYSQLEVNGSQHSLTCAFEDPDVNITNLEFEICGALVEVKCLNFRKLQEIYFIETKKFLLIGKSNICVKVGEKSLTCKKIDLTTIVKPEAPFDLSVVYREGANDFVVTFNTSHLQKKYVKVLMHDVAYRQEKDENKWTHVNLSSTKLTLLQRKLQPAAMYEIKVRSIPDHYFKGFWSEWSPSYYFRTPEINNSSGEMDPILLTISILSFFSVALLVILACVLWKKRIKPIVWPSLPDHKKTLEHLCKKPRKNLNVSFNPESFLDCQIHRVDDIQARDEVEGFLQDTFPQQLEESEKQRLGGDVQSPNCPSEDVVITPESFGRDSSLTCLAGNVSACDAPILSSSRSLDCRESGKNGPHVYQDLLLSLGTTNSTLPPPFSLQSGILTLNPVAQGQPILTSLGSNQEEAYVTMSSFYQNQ
Sequence of IL-7 receptor (IL-7R), heterodimer of IL-7R alpha (CD127) and common gamma chain (CD132), on primary human T cells (human) (P31785 23-369, chain 2 of 2, further chain): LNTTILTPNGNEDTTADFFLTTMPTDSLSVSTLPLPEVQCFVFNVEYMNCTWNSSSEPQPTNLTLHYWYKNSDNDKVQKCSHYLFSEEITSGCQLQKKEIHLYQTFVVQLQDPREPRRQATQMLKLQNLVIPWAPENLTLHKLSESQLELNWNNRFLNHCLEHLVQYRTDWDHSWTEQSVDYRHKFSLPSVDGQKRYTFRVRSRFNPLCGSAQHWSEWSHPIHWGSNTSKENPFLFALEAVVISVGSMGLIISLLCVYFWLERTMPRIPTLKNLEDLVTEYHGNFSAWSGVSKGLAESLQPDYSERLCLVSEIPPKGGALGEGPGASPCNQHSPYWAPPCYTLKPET

Consider “Synthetic IL-7 of SEQ ID NO: 3 (M17Nle, M27Nle, N36Hse, M54Nle, M69Nle, D76Hse, E114Hse, M147Nle) (from UniProt P13232 26-177) (ligand)”, for which the Avg EC50 (nM) (human pSTAT5), CD4 Memory stood at 0.005 nM; the Avg EC50 (nM) (human pSTAT5), CD4 Naive was found to be 0.005 nM; the Avg EC50 (nM) (human pSTAT5), CD4 Treg stood at 0.015 nM; the Avg EC50 (nM) (human pSTAT5), CD8 Memory is 0.006 nM. The substance also displayed an Avg EC50 (nM) (human pSTAT5), CD8 Naive of 0.006 nM.
